{
  "source": "paper PMC12871931",
  "about": "(2025)",
  "assay_in_all_cases": "FP",
  "key": {"[1]": {"target": "importin α2 (IMPα2), Arabidopsis thaliana, recombinant (Arabidopsis thaliana, UniProt F4JL11 1-535)", "sequence (F4JL11 whole entry)": "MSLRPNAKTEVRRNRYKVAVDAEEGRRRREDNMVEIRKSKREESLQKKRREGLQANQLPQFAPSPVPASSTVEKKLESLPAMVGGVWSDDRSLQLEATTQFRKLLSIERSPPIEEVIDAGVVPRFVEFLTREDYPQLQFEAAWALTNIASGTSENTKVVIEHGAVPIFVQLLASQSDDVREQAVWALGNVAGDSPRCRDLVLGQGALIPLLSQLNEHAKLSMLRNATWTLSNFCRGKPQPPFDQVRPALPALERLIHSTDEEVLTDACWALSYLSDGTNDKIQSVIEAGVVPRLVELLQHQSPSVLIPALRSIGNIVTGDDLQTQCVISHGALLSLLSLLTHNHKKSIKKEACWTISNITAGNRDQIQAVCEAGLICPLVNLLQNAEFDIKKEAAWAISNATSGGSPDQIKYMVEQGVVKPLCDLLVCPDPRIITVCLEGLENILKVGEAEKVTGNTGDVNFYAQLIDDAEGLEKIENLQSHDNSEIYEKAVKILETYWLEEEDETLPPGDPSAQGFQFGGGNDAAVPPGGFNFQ"}, "[2]": {"target": "importin α3 (IMPα3), Arabidopsis thaliana, recombinant (Arabidopsis thaliana, UniProt O04294 1-531)", "sequence (O04294 whole entry)": "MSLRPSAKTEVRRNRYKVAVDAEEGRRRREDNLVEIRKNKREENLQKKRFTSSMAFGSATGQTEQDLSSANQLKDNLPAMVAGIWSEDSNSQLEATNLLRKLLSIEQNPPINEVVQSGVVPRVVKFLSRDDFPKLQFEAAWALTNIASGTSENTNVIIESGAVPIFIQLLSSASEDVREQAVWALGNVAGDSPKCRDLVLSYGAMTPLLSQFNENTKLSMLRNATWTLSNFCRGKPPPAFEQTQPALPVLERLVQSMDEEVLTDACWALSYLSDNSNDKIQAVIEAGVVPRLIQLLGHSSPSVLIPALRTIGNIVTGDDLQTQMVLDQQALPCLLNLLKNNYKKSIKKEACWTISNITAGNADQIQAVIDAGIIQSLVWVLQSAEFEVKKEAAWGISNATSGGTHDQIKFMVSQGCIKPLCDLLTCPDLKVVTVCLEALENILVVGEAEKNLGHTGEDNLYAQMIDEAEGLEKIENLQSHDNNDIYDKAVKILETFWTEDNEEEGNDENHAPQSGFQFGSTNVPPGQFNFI"}, "[3]": {"target": "importin α1 (IMPα1), Arabidopsis thaliana, recombinant (Arabidopsis thaliana, UniProt Q96321 1-532)", "sequence (Q96321 whole entry)": "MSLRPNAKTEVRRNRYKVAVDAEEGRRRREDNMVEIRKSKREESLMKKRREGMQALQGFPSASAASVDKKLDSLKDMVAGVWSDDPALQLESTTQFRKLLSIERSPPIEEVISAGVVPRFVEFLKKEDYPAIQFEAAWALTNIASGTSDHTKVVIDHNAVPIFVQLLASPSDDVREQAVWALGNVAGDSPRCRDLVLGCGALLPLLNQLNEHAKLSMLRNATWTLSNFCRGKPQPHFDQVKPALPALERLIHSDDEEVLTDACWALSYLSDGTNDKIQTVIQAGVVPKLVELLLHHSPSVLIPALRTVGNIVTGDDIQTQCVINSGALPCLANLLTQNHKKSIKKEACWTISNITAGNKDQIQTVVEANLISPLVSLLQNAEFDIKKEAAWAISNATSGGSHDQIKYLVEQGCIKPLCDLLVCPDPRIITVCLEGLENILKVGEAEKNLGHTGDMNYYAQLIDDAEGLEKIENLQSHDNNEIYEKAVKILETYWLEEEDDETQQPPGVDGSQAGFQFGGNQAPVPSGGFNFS"}},
  "note": "Ends that are not written are not given here. * marks the point of attachment. 5‑TAMRA = 5-carboxytetramethylrhodamine, N-terminal label, CN(C)c1ccc2c(-c3ccc(C(=O)*)cc3C(=O)[O-])c3ccc(N(C)C)cc3[o+]c2c1",
  "data": [
    {"binder": "{5‑TAMRA}-LKRYKRRL", "note": "[TAMRA‐NOP‐1 (EIN2 NLS peptide, N‐terminally labeled with 5‐TAMRA)]", "values": [
      {"measurement": "Kd", "setting": "[1]", "value": 5.8, "unit": "µM"},
      {"measurement": "Kd", "setting": "[2]", "value": 5.4, "unit": "µM"},
      {"measurement": "Kd", "setting": "[3]", "value": 4.6, "unit": "µM"}
    ]}
  ]
}
